Source: the DeepSol protein solubility set

Test: soluble on expression in E. coli; label from the status in PepcDB or PDB records

| Sequence | soluble on expression in E. coli |
| --- | --- |
| MAVKLGTLLLALALGLAQPASARRKLLVFLLDGFRSDYISDEALESLPGFKEIVSRGVKVDYLTPDFPSLSYPNYYTLMTGRHCEVHQMIGNYMWDPTTNKSFDIGVNKDSLMPLWWNGSEPLWVTLTKAKRKVYMYYWPGCEVEILGVRPTYCLEYKNVPTDINFANAVSDALDSFKSGRADLAAIYHERIDVEGHHYGPASPQRKDALKAVDTVLKYMTKWIQERGLQDRLNVIIFSDHGMTDIFWMDKVIELNKYISLNDLQQVKDRGPVVSLWPAPGKHSEIYNKLSTVEHMTVYEKEAIPSRFYYKKGKFVSPLTLVADEGWFITENREMLPFWMNSTGRREGWQRGWHGYDNELMDMRGIFLAFGPDFKSNFRAAPIRSVDVYNVMCNVVGITPLPNNGSWSRVMCMLKGRAGTAPPVWPSHCALALILLFLLA | soluble |
| MKKVLITGFEPFGGDSKNPTEQIAKYFDRKQIGNAMVYGRVLPVSVKRATIELKRYLEEIKPEIVINLGLAPTYSNITVERIAVNIIDARIPDNDGYQPIDEKIEEDAPLAYMATLPVRAITKTLRDNGIPATISYSAGTYLCNYVMFKTLHFSKIEGYPLKAGFIHVPYTPDQVVNKFFLLGKNTPSMCLEAEIKAIELAVKVSLDYLEKDRDDIKIPL | soluble |
| MMEKNNEVIQTHPLVGWDISTVDSYDALMLRLHYQTPNKSEQEGTEVGQTLWLTTDVARQFISILEAGIAKIESGDFPVNEYRRH | not soluble |
| MATARTARSRRKVRKVRDKWKEKVWYEIYATPEFGGVFIGYTPANDPSLVLGRVAETSLRDLTGDPTKHMHRVYFKIFGVTGNKAIAQYYGHDTTREFMKSQIRRRRSRIDAILDVKTQDGHKIRTKAMVLTAYRANTKQKSDIRKKMEEIIKAMAKEKTFPQYVQAMLFGEMAEKIKNECKKIFPIKNVIIYKSEVLSLAKKEENEGFVKEAEEETAEAQELEHHHHHH | soluble |
| MGSDKIHHHHHHMPAKVYFTDMTTNPNMNMLQKLELLLKKVELEKIIEKDKFVAVKLHFGEYGNLAFIRPQYVKIIVDQIKKLGGKPFLTDANTLYTGHRSNAVDHLINAYLNGFTYEVTGAPVIIADGLRGSDEIKVKIDGNYVKEAKIGAAIALADAIVAVTHFKGHEATGFGGTIKNVGMGSASRAGKMEQHSESKPYVVEEKCVACGTCAKFCPVGAITVTKVAKIDYEKCIGCGQCIAMCSYGAMSPKWDSSTDSLSKKMAEYAKAVLKDKKAVFISFIMNISPDCDCWNMNKPPVAPDIGIAVSTDPVALDQACIDLVLQKTGKDPFLEVHPDVTWKTQLEYAEEIGLGTREYELVKVACDLK | not soluble |
| MLTLKGKYNEAKVFTDNVDDNTIGQIITLCNQPFAKDSKIRIMPDTHGGKGCVIGTTMTIQDKIVPNLVGVDIGCGLYVVKLKPGKLKMDFDKLDKVIRERVPSGSKTHDKPVDEFDLEGIVAPIHHGWVARSIGTLGGGNHFIEVNQGSDGIYLVIHSGSRVLGKEIAEYHQEVAYKRLDILRKELKLDATAAKKRGNLEMANNLNGEREQVKLDYDLSYVTGVDLKNYLNDMEIAQKFAARNRYVMAQIILKAMKWDKAVVSAFDCVHNYIDIEHNMLRKGATSAQLGEQIIVPLNMREGSILATGKGNADWNYSAPHGAGRMLSRSKAKAQISLESYQAAMKDVWTTSVSKKTIDEAPKAYKSAKQLLADVEDTMEIQEIIKPLYNFKALEHHHHHH | soluble |
| MSLSRLPLIGVTACSRQIGLHAYHISGDEYVHAVASAAQGVPVIIPSMAELLSPSDILDGLDGILFTGSPSNIEPFHYQGPASAPGTAHDSARDAATLPLLSAAVASGVPVLGICRGFQEMNVALGGSLHQNVQQVQPFMDHRHAEQPGQPLDAWYAPAHDLHIKAGGVLAGLGLPERIQVNSIHAQGVERLAPGLRVEALAPDGLVEAVSVEASKAFALGVQWHPEWQVSCNPHYLAIFQAFGDACRKRARQRDAEASHKEGHHHHHH | soluble |
| MSLGAKPFGEKKFIEIKGRRMAYIDEGTGDPILFQHGNPTSSYLWRNIMPHCAGLGRLIACDLIGMGDSDKLDPSGPERYAYAEHRDYLDALWEALDLGDRVVLVVHDWGSALGFDWARRHRERVQGIAYMEAIAMPIEWADFPEQDRDLFQAFRSQAGEELVLQDNVFVEQVLPGLILRPLSEAEMAAYREPFLAAGEARRPTLSWPRQIPIAGTPADVVAIARDYAGWLSESPIPKLFINAEPGALTTGRMRDFCRTWPNQTEITVAGAHFIQEDSPDEIGAAIAAFVRRLRPAHHHHHH | soluble |
| MALSTLNREVIKKNLQNEEYDVVIIGGGITGAGIALDASQRGMKVALVEMQDFAQGTSSRSTKLVHGGLRYLKQAQIKVVAETGKERAIVYENGPHVTTPEWMLLPMHKGGTFGKFTTNLGLTAYDRLAGVKKYERKKMLSKKQTLNKEPLVKKDGLKGGGYYVEYRTDDARLTIEVMKRAEENGAEILNHTKSTDFIYDSKSKVRGIEVQDLLTGEMYEINAKKVINAAGPWVDEVRKKDYTRNNKQLRLTKGVHVVIDQSKFPLRQAVYFDTEKDGRMIFAIPREGKAYVGTTDTFYDNDKTKPLTTQEDRDYLIDAINYMFPDVNVKDEDIESTWAGVRPLILEDGKDPSEISRKDEIWEGKSGLLTIAGGKLTGYRHMALEIVDLLAKRLKQEYKLTFAECKTKHTPISGGDVGGSANFESFVERKVEEGKAIGLQADVAKRLASKYGSNVDKLYNIAQIAQDKDLKLPLELYVELVYSVQNEMVFKPTDFLIRRSGKLYFNINEVKQYKDAVVEELAKLLNYTQSQQNEFTKEINIAIEEATRGNEQLAVLKLEHHHHHH | soluble |
| MSLIEKLEEIFKKGSVTYYNSSYFFPKKIREDVTKLYAFVRVFDDLVDSVPQKIEEYYNLRKLYQLEKSGYNTGNIVLQNFVELARRKGFEDSWIDAFLDAMESDIYKKVYYSIEELLKYMYGSAEVVGLFMMKILDLHNDSMYYARMLGRAMQFLNFIRDVQEDLYLGRQYLPVEDMEKFGIDKMECNEGFIEFIRYEISRYFEFEREAEKGFKFIPARYLVPIKTASEMYKWSALRIKKSPCIVLSKKVKPRRTKIVITVIKNFAGVYLWRSLNPIEGHHHHHH | soluble |
| PKFHQAFAMINDAISDQSTFRLSCNEALIHRITPTNTISICADTDLPSLLNDLRLKQIDLIISPTTIHNPSFISESVFEEPMVVICRQDHPRIAGKIEQERFYSEKHCRFVGDEDFPVSNTEIHQPGLQERDVEMMTTSLSGMMLYVAKHDCLGVLPLSLAQKWQSALNLQVIQTPMLSEPVSYKLIFHKRDESSTSHQRLRAWARDQFATGLNA | not soluble |
| MESESIVYGCIRDWPGDSMERRMRRAANRRVLDSLPGGEAWPFLGREMFSRCEQSGAGLYQTQIIHFGASYQAIEYEWSLWVEQFEALLRRLYWASAVVHLETEVNGSHTFRWESERGFHTPQESDLQVRCAWEREGGRR | not soluble |
| MAHHHHHHMPTNAAQALEKLVPGRLLQLADNGTPTIVTPLGNEGSLNALIHAYKGKGYLPYFTHAVKAAQRSLVNELRAAGVEVPNGAEASHLEGVCGVHCRDEASCSHIIPDEHITATLYGEDTDDTRMIVACDPIQTKLRDDCVECFPRVNKVSGWEELVVRVHLFYPNTVPCMSVQDRRARLVTQKQFVPKNARTLQGYHVFHYAKRGSSVRTPHCESMFPYTPKTTESKGFTRENRCTAITVESVFVRDPARQQRPFYAEDAGQARVYFSYLRVDAFVTDDELVEHFPLESMDVAAMPAFTDNRYVEKYHVLVRLYLLAHDQGWTATQPHGCPHPLGDRVGLPVLFRSCATEVIVPDACSHDSQLLLRQRLLPDVEMQVTRFCFRRIVSEVLRQRVVAAAADTPECCIPVVCYMPYSDRVPVFTDKQVGVLARLYPHLGIRRPTSRREWADLSRTLYQHCISLFDILAAVGVPLRDAHGAVIDTDAYVPYTADMADDYFLVIANRPLRDYTCVTNQRWLCEQLLLPDHRPPISARAFAAWVRYWNAMAQLKHELEKQVTLDTVSAHLGLRLPAGKTGQRAACLVNGLVTDAKGGLIFPKLGGRRFRDREHVGALLPGAPVLYSFWVDGKLQFTYVRMPMRFVRGLPLKQVNGQRPVQSVIAAGGAPANRGDGTQRGGGQVGEERRANVAIHA | not soluble |
| MGSDKIHHHHHHMTETERLALASLLYQLADDDFLYAYRGSEWLGLAPHIEEDVASSSIAQDSMGHAAMYYQLLEEIGEGKADALAHVRLAHERKNSVLVERVNGPGYYMENPEYDWAYAVVRNYCYTLAKKVRIDSLKKSSYTPLAALAVKVNMELYYHLLHWQTWFTQLYQSTETARQKMDAALERVLADFGDLFDYGEASELIDEMRLIEGQGILLDRWYQALTPVLVDLNVTLPEMKMTYNGRNGEHSPDLNDALSTLGEVYLLDQSAVW | not soluble |
| MGSDKIHHHHHHMTLTSDSWLTLIVSLPSASATARMRIWRAVKALGCAALRDGAYLLPAQAEQAAQLQMLADEALQEGGQAWLLQVQALDLAEQATFQALFDRTADYTPWLEELAQARQTLSALSAAELQRTQRKHARAYEVIRKIDFFPGETSIRADAQWRDFANALESMQSPGEPQPMAGRIARRDRMQYQGRVWATRRHLWVDRVASAWLIQRFIDPHARFLWLNTAADCPSDALGFDFDGATFSHVGERVTFEVLLASFGLEDDRGLSRLGAMVHALDVGGATTPEASGFEAVLAGARKRWPDDDALLVDIGGVLDSLHAHFSSSRKT | not soluble |
| MSLTQRITMEDIARQSGVSLATVSLVLRDKPGINDETRRRVLDIARDLGYRKRLNHEKLVSQSLHNAGVIVKASIGDDSPLTNPFYAPIVAGIEAACRKMHINLMYATVPVDMDNHPQEMPRLLSEDHLDGVLLVGAFADATITKLLQREGIPAVLVDGYSHEHVYDSVVSDNFRAAYEAVSYLISYGHRHIGLIGTTKEAYPSIAERRKGYIQALTDHGIHDQYFGDCLLTMHEGSDTSSILLQRHPQITALFCANDMMAIGATQAARALHRQIPQDLSIIGFDNIDLAQHVAPALTTMHVDKVSMGRFAVQLLANRAEYPDQAPATVSLRPRLLERQSVQREGHHHHHH | soluble |
| MRKSKRERQRLLQETIRENPFITDEELAEKFSVSVQTIRLDRLELSIPELRERIKNVARQSFADKVRALPLEEVIGDIIDIEPDASAISIFDVKEEHVFRRTRIARGHHLFAQANSLAVAVIHDELALTAKATIRFVRQVKEGERVVAKAKVTGKTAHGRTIVEVNSYVGQELVFSGTFEMYRSNIEKKDGDSNEYRG | not soluble |
| MGSDKIHHHHHHMRFFIAIYEENNITAAATRCYVSQPSLSAGLKQLEEELGGPLFERSKKGVKALDSAHYLYPLAVKLVEEASKLPALFMAKASRQKLRLAVMPDLSQRRLAGLLTQINQAISHLDLELVDYQSTADCRLTLDSLRHEDEVFFPLWEEDYVLCVPTEHPLAQANRIRPEELSQYDFIECPPCEAHQQTIGLLACSNLSLNLVAKADSKSLVMSLVLAGFGVSFLPDGLIEDEPRLKQIKFDGPRMFRRIGLCYPSHQAVAPTLAKLLRYLTQATA | not soluble |
| MAHHHHHHMESLDERWNNQVDNFHIKVNKLRCDMNEYKKGCYNTYNLRNNKNDVFPHLQNNNMKRRELINMNNNYEIKNYLKKPHNQTYILKDNKYVNVDDITFPVSKNISNKVIKTNDEKILENKCCFKLNVRNKRKNEKVIKINEKRWLIATKHVKIERVNKNGVEQSEEKNKKDKNRYIYLEGEEGNLHLYPMYSDSEVGFENISHIEDESLSKVKKENQDDDDIMTTKHLAQWSSDIVHKYLEEAIEKSKSIFQNCNMESRQEEIFKRIKL | not soluble |
